B1: bim2 (dsDNA)
DNA 1: CTAGGCAAGGTAAACACTCCT
DNA 2: CTAGAGGAGTGTTTACCTTGC
B2: bim1 (dsDNA)
DNA 1: CTAGCTAGGGTAAACACGCCG
DNA 2: CTAGCGGCGTGTTTACCCTAG
B3: mut1 (dsDNA)
DNA 1: CTAGCTAGGGTACCCACGCCG
DNA 2: CTAGCGGCGTGGGTACCCTAG
B4: mut2 (dsDNA)
DNA 1: CTAGGCAAGGTAAGTTCTCCT
DNA 2: CTAGAGGAGAACTTACCTTGC
B5: FasL (dsDNA)
DNA 1: CTAGAATAAGTAAATAAATAA
DNA 2: CTAGTTATTTATTTACTTATT

Target: GST-FKH (FKHRL1/FOXO3a DNA-binding domain) (UniProt O43524 141-268, S253A)
Assay: EMSA

Sequence of GST-FKH (FKHRL1/FOXO3a DNA-binding domain) (O43524 141-268 S253A): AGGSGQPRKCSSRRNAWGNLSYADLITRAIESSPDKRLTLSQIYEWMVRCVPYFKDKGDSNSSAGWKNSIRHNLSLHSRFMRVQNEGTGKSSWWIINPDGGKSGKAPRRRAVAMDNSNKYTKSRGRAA

Binder	binding result
B1	binds
B2	binds
B3	no binding
B4	no binding
B5	binds

Source: paper PMC2173804
